{"source": "paper PMC5413351", "about": "“Structural basis of protein translocation by the Vps4-Vta1 AAA ATPase” (eLife, 2017)", "binders": {"B1": {"name": "Vta1^VSL (domain or fragment)", "chain": "SYTKDELTKIMDRASKIEQIQKLAKYAISALNYEDLPTAKDELTKALDLLNSI", "modifications": "also: homodimer"}}, "target": "Vta1^VSL (S. cerevisiae, UniProt Q06263 1-330)", "test": "cryo-EM structure", "details": "both partners purified", "note": "Where no end group is shown, it is not given here.", "data": [{"binder": "B1", "values": [{"measurement": "stoichiometry N", "value": 2}]}]}
